The values below come from the nanobody polyreactivity screen of Harvey et al. (2022).

The data set can be described thus: yeast display, Sf9 membrane polyspecificity reagent, FACS + sequencing; frameworks hold sequencing errors. The procedure, abridged:
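Nanobodies from a synthetic yeast display library (Saccharomyces cerevisiae BJ5465), induced 36–48 hours with galactose, were stained 1 hour at 4 °C with 10% biotinylated, detergent-solubilized Sf9 membrane reagent, enriched on streptavidin microbeads, then FACS-sorted. Anti-HA (expression) and streptavidin (reagent binding) fluorescence set low and high (top ~1%) gates. Polyreactivity labels come from the gate of origin. Genes were colony-PCR amplified, MiSeq 2 × 250 sequenced and filtered by CDR length.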
“QVQLVESGGGLVQAGGSLRLSCAASGRTSLGYAMGWYRQAPGKERELVAAISGGTTYYADSVKGRCTISRDNAKNPVYLQMNSLKPEDTAVYYCNAVYVWFSGAPRRYTKRYYWGQGTQVTVSS”: the “polyreactivity (PSR sort gate)” value was “high polyreactivity”.

Consider “QVQLVESGGGLVQAGGSLRLSCAASGRTSLRYSMGWYRQAPGKERELVAAITSSGATTYYADSVKGRFTISRDNAKNTVYLQMNSLKPEDTAVYYCAAVYSAKRGSGGFGYWGQGTQVTVSS”, for which the “polyreactivity (PSR sort gate)” value is recorded as “high polyreactivity”. For “QVQLVESGGGLVQAGGSLRLSCAASGRTSNFNAMGWYRQAPGKERELVAAINSDGSTYYADSVKGRFTISRDNAKNTVYLQMNSLKPEDTAVYYCAAVSLFRDSQFDYWGQGTQVTVSS” the value was “low polyreactivity”; for “QVQLVESGGGLVQAGGSLRLSCAASGRTSQYYAMGWYRPAPGKERELVASISRSGRTYYADSVKGRFTISRDNAKNTVYLQMNSLKPEDTAVYYCAAAKRTTHRYPYDYWGQGTQVTVSS”, “high polyreactivity”; for “QVQLVESGGGLVQAGGSLRLSCAASGRTSRHYAMGWYRQAPGKERELVAAISRSGGSTYYADSVKGRFTISRDNAKNTFYLQMNILKPDDSAVYYCNKDLKYYTSTYDYWGQGTQVTVSS”, “high polyreactivity”.

Take “QVQLVESGGGLVQAGGSLRLSCAASGRTSRYAMGWSRQAPGKERELVAAITSSGGRTYYADSVKGRFTISRDNAKNTVYLQMNSLKPEDTAVYYCAAGYLLWRTWDYAAGHNYWGQGTQVTVSS”: the “polyreactivity (PSR sort gate)” value was “high polyreactivity”. For “QVQLVESGGGLVQAGGSLRLSCAASGRTSSSNAMGWYRQAPGKERELVATISRTGSTYYADSVKGRFTISRDNAKNTVYLQMNSLKPEDTAVYYCNRYFSEALLHGSSYNRYYYWGQGTQVTVSS” the value was “low polyreactivity”.

In the case of “QVQLVESGGGLVQAGGSLRLSCAASGRTSTGYAMGWYRPAPGKERELVAGIDKIGGRTYYADSVKGRFTISRDNEKNTVYLQMNSLKPEDTAVYYCNRVPRRSIRYDYWGQGTKVTVSS”, the “polyreactivity (PSR sort gate)” value is given as “high polyreactivity”.

As to “QVQLVESGGGLVQAGGSLRLSCAASGRTTLLYAMGWYRQAPGKERELVATIRYTGGSTYADSVKGHFTISRDNAKNTVYLQMNILKPEDTAVYYCNARSYQYDGGHRYWGQGTQVTVSL”, the “polyreactivity (PSR sort gate)” value is reported as “high polyreactivity”.

As for “QVQLVESGGGLVQAGGSLRLSCAASGRTVGVYAMGWYRQAPGKERELVATITSGASTNYADSVKARFTISRDNAKNTVYLQMTSLKPEDTAVYYCNARRVAYASYSHPRVLDDYWGQGTQVTVST”, the “polyreactivity (PSR sort gate)” value was “low polyreactivity”. For “QVQLVESGGGLVQAGGSLRLSCAASGRTVGWYAMGWYRQAPGKERELVAAITWRGGSTYYADSVKGRFTISRDNAKNTVYLQMTSLKPEDTAVYYCAAAAEKRSYYWGQGTQVTVSS”, the “polyreactivity (PSR sort gate)” value is listed as “high polyreactivity”. For the sequence “QVQLVESGGGLVQAGGSLRLSCAASGRTVLHYDMGWYRQAPGKERELVASISSGVSTHYADSVKGRFTISRDNAKNTVYLQMNSLQPEDTAVYYCAARPYRFGRYGYDYDYWGQGTQVTVSS”, the “polyreactivity (PSR sort gate)” value is recorded as “high polyreactivity”.

Take “QVQLVESGGGLVQAGGSLRLSCAASGRTVWGYGMGWYRQAPGKERELVATISSGGSTYYADSVKGRFTISRDNAKNTVYLQMNSLKPEDTAVYYCAARPPRTYWRYQSDYWGLGTQVTVSS”: the “polyreactivity (PSR sort gate)” value is “high polyreactivity”. The result for “QVQLVESGGGLVQAGGSLRLSCAASGRTYDQYVMGWYRQAPGKERELVAAITSGGSTYYADSVKGRFTISRDNAKNTVYLLMNSLKPEDTAVYYCNARTSVLHDYWGQGTQVTVSS” reads “low polyreactivity”; that for “QVQLVESGGGLVQAGGSLRLSCAASGRTYGIYAMGWYRQAPGKERELVADITIGGSTYYADSVMGRFTISRDNAKNTVYLQMNSLKPEDTAVYYCNADFVVQYYFTYYRVFTYDYWGLGTQVTVSS”, “low polyreactivity”.

Take “QVQLVESGGGLVQAGGSLRLSCAASGRTYGRNAMGWYRQEPGKDRELVASITKRGGSTYYADSVKGRFTISRDNAKNTVYLQMNSLKPEDTAVYYCAVEAYDYWGQGSQVTVSS”: the “polyreactivity (PSR sort gate)” value is given as “high polyreactivity”.

On to “QVQLVESGGGLVQAGGSLRLSCAASGRTYGYYAMGWYRQAPGKERELVAAITRSGGSTYYADSVKGRFTISRDNAKNTVYLQMNSLKPEDTAVYYCNAVYYKGYGYWGQGSQVTVSS”, for which the “polyreactivity (PSR sort gate)” value is given as “high polyreactivity”. The result for “QVQLVESGGGLVQAGGSLRLSCAASGRTYKYYAMGWYRQAPGKERELVAAISRGGSTNYADSVKGRFTISRDNAKKTVYLQVNSLKPEDTAVYYCARRYIVQSGDDYWGQGTQVSVSS” reads “low polyreactivity”; that for “QVQLVESGGGLVQAGGSLRLSCAASGRTYPGYSMGWYRQAPGKERELVAAITRGSTNYADSVKGRFTISRDNAKNTVYLQMNSLKPEYTAVYYCATRGYYYWTHYDYWGHGTQVTVSS”, “low polyreactivity”; that for “QVQLVESGGGLVQAGGSLRLSCAASGRTYYDYAKGCYRQAPGKEREFVSAITDRDASTSYADSVKGRFTISRDNAKTTVYLQMNSLKPYDTAVYYCAADEYWYKPYVGELYAYVYWGEGTQVTVSS”, “low polyreactivity”. For “QVQLVESGGGLVQAGGSLRLSCAASGRVYAMGWYRQAPGKERELVAAISRNGGSTYYADSVKGRFTISRDNAKNNVYLQMNSLKPEDTAVYYCNKYSGYKGTDGGDYWGQGTQVTVSS” the value was “low polyreactivity”. For the sequence “QVQLVESGGGLVQAGGSLRLSCAASGSARYAMGWYRQAPGKERELVAAISRRGGSTFYADSVKGRFTISRDNAKNTVYLQMHSLKPEDTAVYYCAADGRISYDYWGQGTQVTVSS”, the “polyreactivity (PSR sort gate)” value is “low polyreactivity”. In the case of “QVQLVESGGGLVQAGGSLRLSCAASGSFLEPYSMGRYRQATGKERELVAAISFSDTSTYYADSVKGRFTISRDNAKNTVYLQMNSLKQEDTAVYYCAATYVLYWGYEYDYWGQGTQVTVSS”, the “polyreactivity (PSR sort gate)” value is reported as “high polyreactivity”.

Consider “QVQLVESGGGLVQAGGSLRLSCAASGSFLVYYAMGWYRQAPGKERELVAAISWRGDSTSYADSVKGRFTISRDNAKNTVYLQMNSLKPEETAVYYCATAHDYAFYRYWYVPSEYNYWGQGTQVTVSS”, for which the “polyreactivity (PSR sort gate)” value is on record as “low polyreactivity”. The result for “QVQLVESGGGLVQAGGSLRLSCAASGSHFSSYVMGGYRQGPGKERELVAAISSIGGSTYYADSVKGRFTISRDNAKNTVYLQMNSLKPEDTAVYYCAAEPPGSTYEGGYWGQGTQVTVSS” reads “low polyreactivity”; that for “QVQLVESGGGLVQAGGSLRLSCAASGSIAHYAMGWYRQDPGKERELVAAINWSGGSTNYADSVKGRFTISRDNAKNTVYLQMNSMKPEDTAVYYCSAQKRGPGYPYYYWGQGTQVTVSS”, “high polyreactivity”; that for “QVQLVESGGGLVQAGGSLRLSCAASGSICAYYAMGWYRQAPGKERELVAAISGTGGSTNYADSVKGRFTISRDNAKNNVYLQMNSLKPEDTAVYYCAKDYSFQWRNEFNLAGEYDYWGQGTQVTVSS”, “low polyreactivity”.

“QVQLVESGGGLVQAGGSLRLSCAASGSICGSYAMGWYRQAPGKERELVAAITRSGSRTYYADSVKGRFTISRDNAKNTVYLQMISLKPEDTAVYFCATGYPGGFDYWGQGTQVTVSS”: the “polyreactivity (PSR sort gate)” value is “high polyreactivity”.

“QVQLVESGGGLVQAGGSLRLSCAASGSICRRNDMGWYRQAPGKERELVAAISSNGGSTYYADSVKGRFTISRDNAKNTVYLQMNSLKPEDTAVYYCNALVRVRYSPRYGYDYWGQGTQVTVSS”: the “polyreactivity (PSR sort gate)” value is reported as “high polyreactivity”. With “QVQLVESGGGLVQAGGSLRLSCAASGSICVQYAMGRSRQAPGKERELVAAISNSGGSTYYADSVKGRFTISRDTAKNTVYLQMNSLKPEDTAVYYCAARYHTRGAGRPYYYWGQGTQVTVSS”, the “polyreactivity (PSR sort gate)” value is reported as “high polyreactivity”.

With “QVQLVESGGGLVQAGGSLRLSCAASGSIFAAYTMGWYRQAPGKERELVAAISVSTVSTYYADSVKGRFTISRDNAKNTVYLHMNSLKPEDTAVYYCNADATDSYPEKDDHDSWGQGTQVTVSS”, the “polyreactivity (PSR sort gate)” value was “low polyreactivity”. With “QVQLVESGGGLVQAGGSLRLSCAASGSIFAAYTMGWYRQAPGKERELVAAISVSTVSTYYADSVKGRFTISRDTAKNTVYLQMNRLKPEDTAVYYCNADATDSYPEKDEHDSWGQGTQVTVSS”, the “polyreactivity (PSR sort gate)” value is reported as “low polyreactivity”.

For “QVQLVESGGGLVQAGGSLRLSCAASGSIFAAYTMGWYRQAPGKERELVATISSGGSTYYADSVKGRFTISRDNAKNTVYLQMNSLKPEDTAVYYCAAVAYTYTEYEYWGQGTQVTVSS”, the “polyreactivity (PSR sort gate)” value is “low polyreactivity”. On to “QVQLVESGGGLVQAGGSLRLSCAASGSIFADNAKGWYRQAPGKEMDLVAAITWSGGSTYYADSVKGRFTISRDNAKNTVYLQMNSLKPEDTAVYYCNADDAVEYSYGGGTEFYYWGQGTQVTVSS”, for which the “polyreactivity (PSR sort gate)” value is on record as “low polyreactivity”. Consider “QVQLVESGGGLVQAGGSLRLSCAASGSIFADYAMGWSRQAPGKEREFVAAITRSGTSTYYADSVKGRFTISRDNAKNTVYLQMNSLKPEDTAVYYCAKTEVLLYLYTLDYWGQGTQVTVSS”, for which the “polyreactivity (PSR sort gate)” value is “low polyreactivity”. The result for “QVQLVESGGGLVQAGGSLRLSCAASGSIFADYAMGWYRQAPGKERELVAVISRRGGTTYYADSVKGRFTISRDNAKNTVYLQMNSLKPEDTAVYYCAARRSFNEYDYWGQGTQVTVSS” reads “high polyreactivity”; that for “QVQLVESGGGLVQAGGSLRLSCAASGSIFADYVMGWYRQAPGKERELVAAISRGGGRTYYADSVKGRFTISRDNAKNTVYLQMNSLKPEDTAVYYCAARGYPTNYDPGYTYDYWGQGTQVTVSS”, “high polyreactivity”. On to “QVQLVESGGGLVQAGGSLRLSCAASGSIFAGNAMGWYRQAPAKERELVAAISRRGGSTYYADSVKGRFTISRDNAKNTVYLQMNSLKPEDTAVSYCNALLRYAYHAAYGYWGQGTQVTVSS”, for which the “polyreactivity (PSR sort gate)” value is given as “high polyreactivity”. The result for “QVQLVESGGGLVQAGGSLRLSCAASGSIFAGNAMGWYRQAPGKERELVAAISRRGGSTYYADSVKGRFTISRDNAKNTVYLQMNSLKPEDTAVYYCAAANWQRYYYWGQGTQVTVSS” reads “high polyreactivity”; that for “QVQLVESGGGLVQAGGSLRLSCAASGSIFAGNAMGWYRQAPGKERELVAAISRRGGSTYYADSVKGRFTISRDNAKNTVYLQMNSLKPEDTAVYYCNALLRYAYHAAYGYWGQGTQVTVSS”, “high polyreactivity”.

For “QVQLVESGGGLVQAGGSLRLSCAASGSIFAGNTMGWYRQAPGKEREFVASIRSSSGSTYYADSVKGRFTISRDNAKNTVYLQMNSLKPEDTAVYYCAARVYHYREFWVNYWGHGTQVTVSS”, the “polyreactivity (PSR sort gate)” value is listed as “high polyreactivity”.
